From patent US20180258174A1 (INSITUT NATIONAL DE LA SANTE ET DE LA RECHERCHE MEDICALE …, published 2018)

Target: RLIQ108D/CD122 complex (RLIQ108D bound to immobilized CD122) (human, UniProt P14784 27-240, limits assumed)
Test: SPR, sequential binding on immobilized CD122
Protocol: The SPR experiments were performed with a BIAcore 3000 biosensor (BIAcore, Uppsala, Sweden). Recombinant proteins (hCD122, hCD132, Fc-IL-15Rα) were covalently linked to CM5 sensor chips, and the binding of increasing concentrations of ligands (IL-15, IL-15Q108D, RLI, RLIQ108D, RLIN65K) was monitored. Analysis of sensorgrams was performed using BIAlogue kinetics evaluation software.
In order to inhibit IL-2 and IL-15 dependent effector functions, we developed an original approach targeting the CD122/CD132 dimer, by combining an increased affinity for CD122 and an impaired recruitment of CD132. […] We have thus generated RLIQ108D, a fusion molecule between IL-15Q108D mutein covalently linked to the soluble IL-15Rα sushi domain. As a control, RLIN65K was produced in which CD122 recruitment was abrogated by introducing the N65K mutation in the IL-15 moiety. […] By contrast, RLIN65K was unable to bind CD122 (FIG. 11C). Furthermore, soluble CD132 binding to RLI/CD122 complex was completely abrogated when introducing in RLI the Q108D substitution (RLIQ108D) (FIG. 11E). […] As a control, the binding of the non-blocking CF-1 anti-CD122 mAb was unaffected by either RLIQ108D or RLIN65K (FIG. 12A).

Sequence of RLIQ108D/CD122 complex (RLIQ108D bound to immobilized CD122) (chain, as listed by the source limits assumed, chain 1 of 2): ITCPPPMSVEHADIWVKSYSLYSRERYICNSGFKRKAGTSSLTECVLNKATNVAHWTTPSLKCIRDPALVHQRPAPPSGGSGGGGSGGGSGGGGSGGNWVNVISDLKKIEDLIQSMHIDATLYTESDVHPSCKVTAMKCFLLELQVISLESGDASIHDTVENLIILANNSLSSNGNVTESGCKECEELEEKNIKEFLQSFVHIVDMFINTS
Sequence of RLIQ108D/CD122 complex (RLIQ108D bound to immobilized CD122) (P14784 27-240 limits assumed, chain 2 of 2): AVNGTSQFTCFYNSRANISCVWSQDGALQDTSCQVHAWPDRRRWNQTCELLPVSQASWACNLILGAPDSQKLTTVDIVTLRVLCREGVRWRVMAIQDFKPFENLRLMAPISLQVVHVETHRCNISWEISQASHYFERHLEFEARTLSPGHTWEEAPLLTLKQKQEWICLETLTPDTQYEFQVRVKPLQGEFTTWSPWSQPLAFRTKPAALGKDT

B1: hCD132 (recombinant, soluble CD132 chain) (receptor, human, UniProt P31785 23-262, looked up)
chain: LNTTILTPNGNEDTTADFFLTTMPTDSLSVSTLPLPEVQCFVFNVEYMNCTWNSSSEPQPTNLTLHYWYKNSDNDKVQKCSHYLFSEEITSGCQLQKKEIHLYQTFVVQLQDPREPRRQATQMLKLQNLVIPWAPENLTLHKLSESQLELNWNNRFLNHCLEHLVQYRTDWDHSWTEQSVDYRHKFSLPSVDGQKRYTFRVRSRFNPLCGSAQHWSEWSHPIHWGSNTSKENPFLFALEA
- binding result: no binding
